Measured values taken from patent US20260201030A1 (EVOPOINT BIOSCIENCES, published 2026).

B1: 25C7A5-HZ1 (antibody, human IgG1, kappa)
heavy: not shown
light: EIVLTQSPATLSLSPGERATLSCKASENVKTYVSWYQQKPGQSPRLLIYEASNRYTGVPARFSGSGSATDFTLTISSLEPEDFAVYFCGQTYSFPPTFGQGTKVEIKRTVAAPSVFIFPPSDEQLKSGTASVVCLLNNFYPREAKVQWKVDNALQSGNSQESVTEQDSKDSTYSLSSTLTLSKADYEKHKVYACEVTHQGLSSPVTKSFNRGEC
notes: Humanized IgG1/kappa
B2: ADC formed by conjugation of 25C7A5-HZ2 (antibody, human IgG1, kappa)
heavy: not shown
light: B1 light
modifications: toxin linker conjugated to cysteine sulfhydryl groups after TCEP reduction (positions not given); toxin linker conjugated to cysteine sulfhydryl groups after TCEP reduction (positions not given); DAR 7.10
notes: The label B82 is not explained; also called conjugated 25C7A5-HZ2; 25C7A5-HZ2-B82
B3: ADC formed by conjugation of 25C7A5-HZ1 (antibody, human IgG1, kappa)
heavy: not shown
light: B1 light
modifications: toxin linker conjugated to cysteine sulfhydryl groups after TCEP reduction (positions not given); toxin linker conjugated to cysteine sulfhydryl groups after TCEP reduction (positions not given); DAR 6.82 (B82 batch) or 7.97 (B81 batch)
notes: also called conjugated 25C7A5-HZ1; 25C7A5-HZ1-B82

Columns and labels:
[1] = target: T1, human Claudin18.2 (human, UniProt P56856-2 1-261); assay: cell-based ELISA on L929-Claudin18.2 (human) cells
T1 construct: whole, on cells; also called CLDN18.2; HEK293T-Claudin18.2 (human)

[2] = target: T2, human Claudin18.1 (human, UniProt P56856 1-261); assay: FACS on HEK293T-Claudin18.1 (human) cells, antibody 50 µg/mL
T2 construct: whole, on cells; also called CLDN18.1; HEK293T-Claudin18.1 (human)
Protocol: The specificity of the anti-human Claudin18.2 humanized monoclonal antibodies was determined by flow cytometry (FACS). The experimental procedures were as follows: HEK293T-Claudin18.1 (human) cells were digested, collected by centrifugation, washed three times with pre-cooled PBS, resuspended in 1% BSA (in PBS), and added to a 96-well pointed bottom plate at 3×10⁵ cells/well. Each test antibody with a final concentration of 50 μg/mL was added, and the mixture was incubated at 4° C. for 1 h. The cells were washed three times with pre-cooled PBS, and then 1 μL of a fluorescent secondary antibody (APC: Biolegend-410712 or PE: BioLegend-410708) was added to each well. The mixture was incubated at 4° C. for 0.5 h, and the cells were washed three times with pre-cooled PBS, then resuspended, and assayed on a flow cytometer. For reference, anti-human Claudin18.1 positive control antibodies (positive control antibody-1 and positive control antibody-2) were included in the experiment.

[3] = target: T3, mouse Claudin18.2 (mouse, UniProt P56857-3 1-264, limits assumed); assay: FACS on HEK293T-Claudin18.2 (mouse) cells
T3 construct: whole, on cells; also called HEK293T-Claudin18.2 (mouse)
T3 sequence (P56857 other isoform, or with tags, fused parts or gaps limits assumed): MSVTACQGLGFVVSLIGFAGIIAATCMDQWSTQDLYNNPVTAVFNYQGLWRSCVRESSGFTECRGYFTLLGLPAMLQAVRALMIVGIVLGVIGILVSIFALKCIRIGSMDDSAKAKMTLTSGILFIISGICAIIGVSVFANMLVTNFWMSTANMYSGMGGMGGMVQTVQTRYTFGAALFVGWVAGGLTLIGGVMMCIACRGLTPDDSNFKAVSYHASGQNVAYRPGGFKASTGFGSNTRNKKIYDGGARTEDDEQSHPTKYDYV
Protocol: The mixture was incubated at 4° C. for 0.5 h, and the cells were washed three times with pre-cooled PBS, then resuspended, and assayed on a flow cytometer.

[4] = target: T1, human Claudin18.2; assay: cell-based ELISA (OD450) on NUGC4 cells (endogenous human Claudin18.2)
[5] = target: T1, human Claudin18.2; assay: cell-based or functional assay
[6] = target: T1, human Claudin18.2; assay: cell-based ELISA on HEK293T-Claudin18.2 (human) cells
Protocol: The affinity of the anti-human Claudin18.2 murine monoclonal antibodies was evaluated by cell-based ELISA. The experimental procedures were as follows: The day before the experiment, HEK293T-Claudin18.2 (human) cells were plated in a 96-well plate at 5×10⁴ cells/well. On the day of the experiment, the supernatant was removed, the cells in each well were washed once with 300 μL of PBS, and 100 μL of 4% paraformaldehyde was added to each well for fixation at room temperature for 20 min. Paraformaldehyde was then removed, and the cells in each well were washed twice with 300 μL of PBS. 100 μL of 2% BSA (in PBS) was added to each well, and the mixture was blocked at 37° C. for 2 h. After removing the blocking solution, each antibody subjected to gradient dilution (diluted with 2% BSA (in PBS), starting at […], in a 3-fold gradient, for a total of 11 concentration points) was added to the plate at 100 μL/well, and the mixture was incubated at 37° C. for 2 h. The supernatant was removed, and the cells in each well were washed three times with 300 μL of PBST. […] The reaction was stopped by adding 50 μL of 2 N HCl to each well, and OD_{450 nm} values were read on a microplate reader (manufacturer: MD, model: SpectraMax). […]
The affinity of the anti-human Claudin18.2 humanized monoclonal antibodies was determined by cell-based ELISA. […]

[7] = target: T1, human Claudin18.2; assay: cell-based ELISA on NUGC4-Claudin18.2 (human) cells
[8] = target: T1, human Claudin18.2; assay: FACS on NUGC4-Claudin18.2 (human) cells
Protocol: (§1) The affinity of the anti-human Claudin18.2 humanized antibodies was detected by flow cytometry. The experimental procedures were as follows: The adherent cultured HEK293T-Claudin18.2 (human), NUGC4-Claudin18.2 (human) and NUGC4 cells were digested, collected by centrifugation, and washed three times with pre-cooled PBS. The cells were resuspended in 1% BSA (in PBS) and added to a 96-well pointed bottom plate at 3×10⁵ cells/well, with a volume of 50 μL per well. Each test antibody was diluted with 1% BSA (in PBS) (starting at 100 μg/mL, diluted in a 3-fold gradient, for 10 concentration points). The test antibody subjected to gradient dilution was added to the cells at 50 μL/well, and the mixture was well mixed and incubated at 4° C. for 1 h. The cells were collected by centrifugation, washed three times with pre-cooled PBS, and resuspended in 50 μL of 1% BSA (in PBS). 1 μL of a fluorescent secondary antibody (Biolegend-410712) was added to each well, and the mixture was well mixed and incubated at 4° C. for 0.5 h. The cells were collected by centrifugation, washed three times with pre-cooled PBS, resuspended in 200 μL of PBS, and assayed on a machine.

[9] = target: T1, human Claudin18.2; assay: cell-based ELISA on NUGC4 cells (endogenous human Claudin18.2)
[10] = target: T1, human Claudin18.2; assay: FACS on HEK293T-Claudin18.2 (human) cells
Protocol: as §1

[11] = target: T1, human Claudin18.2; assay: cell-based ELISA on L929-claudin 18.2 (human) and NUGC4 cells, ADC

Binder | EC50 [1] [µg/mL] | Positive rate (%) [2] [%] | EC50 [3] [µg/mL] | Maximum signal value [4] | ADCC activity EC50 (Jurkat-NFAT-CD16a luciferase reporter, HEK293T-Claudin18.2 (human) target cells) [5] [µg/mL] | CDC activity EC50 (guinea pig serum killing, CCK8, HEK293T-Claudin18.2 (human) cells) [5] [µg/mL] | EC50 [6] [µg/mL] | EC50 [7] [µg/mL] | EC50 [8] [µg/mL] | EC50 [9] [µg/mL] | EC50 [10] [µg/mL] | Maximum signal value [10] | binding result [11]
B1 | 0.0134 | 0.54 | 0.941 | 0.304 | 0.0465 | 3.14 | 0.0112 | 0.108 | 3.19 | 0.101 | 0.292 | 114000 | 
B2 |  |  |  |  |  |  |  |  |  |  |  |  | binds
B3 |  |  |  |  |  |  |  |  |  |  |  |  | binds
